For experiment [1], the target named is CD3 on Jurkat-Lucia™ NFAT cells (Homo sapiens (Human)) (UniProt P07766). The experiment is described as follows: cell-based or functional assay.
The target of experiment [2] is CD19 on Raji cells (UniProt P15391). The experiment is described as follows: flow cytometry on Raji cells, BiTE detected with anti-FLAG-APC (anti-FLAG-APC only: 1439). For orientation: Flow cytometry measures light scatter and fluorescence of single cells or particles in a stream.
The target in experiment [3] is CD3 on Jurkat-Lucia™ NFAT cells (Homo sapiens (Human)) (UniProt P07766). The experiment is described as follows: flow cytometry on Jurkat-Lucia NFAT cells, BiTE detected with anti-FLAG-APC (anti-FLAG-APC only: 1519).
Experiment [4] has as its target CD19 on Raji cells (UniProt P15391). The experiment is described as follows: flow cytometry on Raji cells, concentrated supernatant, BiTE detected with anti-FLAG-APC (anti-FLAG-APC only: 1439).
Experiment [5] concerns the target CD3 on Jurkat-Lucia™ NFAT cells (Homo sapiens (Human)) (UniProt P07766). Kind of experiment: flow cytometry on Jurkat-Lucia NFAT cells, concentrated supernatant, BiTE detected with anti-FLAG-APC (anti-FLAG-APC only: 1519).
Experiment [6] deals with mouse TGF-β1 (R&D Systems) (mouse) (UniProt P04202). The experiment is described as follows: direct ELISA with mouse TGF-β1 on HEK293T supernatant (media control 0.041 ± 0.002). On the technique in general: In an ELISA, binding on a coated surface is turned into a signal by an enzyme label.
Chain of mouse TGF-β1 (R&D Systems) (mouse) (P04202 279-390 limits assumed): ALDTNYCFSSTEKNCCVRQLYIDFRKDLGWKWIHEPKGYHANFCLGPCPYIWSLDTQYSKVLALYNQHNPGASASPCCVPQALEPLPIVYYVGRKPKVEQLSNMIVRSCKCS
Experiment [7] shares this target. Kind of experiment: direct ELISA with mouse TGF-β1 on concentrated HEK293T supernatant (media control 0.041 ± 0.002).
For experiment [8], the target named is recombinant murine CTLA-4-human IgG1 Fc chimera (R&D Systems) (mouse; human) (UniProt P09793). Kind of experiment: competitive ELISA: HEK293T supernatant mixed with 10 ng/ml murine CTLA-4-human IgG1 Fc, on coated mouse CD80 (competitor); anti-human IgG1-HRP detection.
The target is the same in experiment [9]. The experiment is described as follows: competitive ELISA: HEK293T supernatant mixed with 10 ng/ml murine CTLA-4-human IgG1 Fc, on coated mouse CD86 (competitor); anti-human IgG1-HRP detection.
In experiment [10] the target is T1, recombinant murine CTLA-4-human IgG1 Fc chimera (R&D Systems) (mouse; human, UniProt P09793 36-162; P01857 100-330 = IgG part, limits assumed).
T1 construct: Bought reagent; also called mouse CTLA-4-Fc
Kind of experiment: direct ELISA of transfected HEK293T supernatant on mouse CTLA-4-Fc; the grade is printed as the payload's expression level.

Chain of CD3 on Jurkat-Lucia™ NFAT cells (Homo sapiens (Human)) (P07766 23-207 limits assumed, form in doubt, chain 1 of 3): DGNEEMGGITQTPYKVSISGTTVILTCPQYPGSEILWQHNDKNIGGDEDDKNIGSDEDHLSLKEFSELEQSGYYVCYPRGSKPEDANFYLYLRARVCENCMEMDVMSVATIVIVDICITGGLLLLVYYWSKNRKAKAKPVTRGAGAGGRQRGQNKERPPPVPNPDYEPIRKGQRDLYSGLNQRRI
Chain of CD3 on Jurkat-Lucia™ NFAT cells (Homo sapiens (Human)) (delta, as listed by the source limits assumed, form in doubt, chain 2 of 3): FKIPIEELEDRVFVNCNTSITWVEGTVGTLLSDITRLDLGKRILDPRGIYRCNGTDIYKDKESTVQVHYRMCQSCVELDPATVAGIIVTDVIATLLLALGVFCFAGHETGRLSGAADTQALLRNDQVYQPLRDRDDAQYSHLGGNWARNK
Chain of CD3 on Jurkat-Lucia™ NFAT cells (Homo sapiens (Human)) (gamma, as listed by the source limits assumed, form in doubt, chain 3 of 3): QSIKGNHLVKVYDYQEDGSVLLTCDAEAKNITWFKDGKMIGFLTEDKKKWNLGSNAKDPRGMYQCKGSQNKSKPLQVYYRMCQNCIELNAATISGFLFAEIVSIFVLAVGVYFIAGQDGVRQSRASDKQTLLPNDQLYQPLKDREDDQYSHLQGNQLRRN
Chain of CD19 on Raji cells (P15391 20-556 limits assumed): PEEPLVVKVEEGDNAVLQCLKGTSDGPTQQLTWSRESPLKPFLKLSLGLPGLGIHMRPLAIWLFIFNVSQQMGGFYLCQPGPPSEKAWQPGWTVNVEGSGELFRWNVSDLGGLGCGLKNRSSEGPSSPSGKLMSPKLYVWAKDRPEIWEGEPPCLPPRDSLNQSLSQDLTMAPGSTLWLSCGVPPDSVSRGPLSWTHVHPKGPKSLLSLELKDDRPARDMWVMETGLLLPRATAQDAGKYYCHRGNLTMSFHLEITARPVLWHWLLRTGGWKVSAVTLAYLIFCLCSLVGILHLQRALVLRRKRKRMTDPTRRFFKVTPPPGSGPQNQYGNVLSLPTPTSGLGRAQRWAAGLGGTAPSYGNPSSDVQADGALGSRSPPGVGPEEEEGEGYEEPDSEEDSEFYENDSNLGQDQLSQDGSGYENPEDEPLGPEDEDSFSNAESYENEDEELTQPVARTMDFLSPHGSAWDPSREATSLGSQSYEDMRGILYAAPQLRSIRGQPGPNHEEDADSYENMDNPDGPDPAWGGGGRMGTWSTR

In experiment [1], “CD3xCD19 bispecific T-cell engager (BiTE®), containing a FLAG tag and a His tag (bispecific antibody)” displayed a Luminescence (NFAT reporter), 1 Raji: 1 Jurkat, 6 hour time point, CD3xCD19 BiTE® of 2060 Luminescence; a Luminescence (NFAT reporter), 1 Raji: 1 Jurkat, 6 hour time point, concentrated CD3xCD19 BiTE® of 4340 Luminescence; a Luminescence (NFAT reporter), 1 Raji: 1 Jurkat, 24 hour time point, CD3xCD19 BiTE® of 6020 Luminescence; a Luminescence (NFAT reporter), 1 Raji: 1 Jurkat, 24 hour time point, concentrated CD3xCD19 BiTE® of 18600 Luminescence. Besides, in experiment [1], the Luminescence (NFAT reporter), 2 Raji: 1 Jurkat, 6 hour time point, CD3xCD19 BiTE® was 3440 Luminescence; the Luminescence (NFAT reporter), 2 Raji: 1 Jurkat, 6 hour time point, concentrated CD3xCD19 BiTE® was 12100 Luminescence; the Luminescence (NFAT reporter), 2 Raji: 1 Jurkat, 24 hour time point, CD3xCD19 BiTE® is 11300 Luminescence; the Luminescence (NFAT reporter), 2 Raji: 1 Jurkat, 24 hour time point, concentrated CD3xCD19 BiTE® is 47200 Luminescence. In [2], this molecule gave a Mean Fluorescence Intensity (MFI) of APC+ Cells of 7410 MFI. In experiment [3], this molecule came in with a Mean Fluorescence Intensity (MFI) of APC+ Cells of 4580 MFI. The molecule also had a Mean Fluorescence Intensity (MFI) of APC+ Cells in experiment [4] of 16000 MFI. The molecule also returned a Mean Fluorescence Intensity (MFI) of APC+ Cells in experiment [5] of 14100 MFI.
For the molecule “Soluble mouse TGFβ receptor II-Fc (Fc fusion)”, the Absorbance at 450 nm (absorbance at 450 nm) in [6] came to 1.51; in [7], 1.52.
On to “anti-CTLA-4 scFv (ipilimumab scFv antibody fragment)”, for which the % CD80 Blockade Activity in [8] was 7%. In experiment [9], the % CD86 Blockade Activity is 32.5%.

B1: anti-murine CTLA-4 scFv (derived from the 9D9 clone) (scFv)
scFv: DIVMTQTTLSLPVSLGDQASISCRSSQSIVHSNGNTYLEWYLQKPGQSPKLLIYKVSNRFSGVPDRFSGSGSGTDFTLKISRVEAEDLGVYYCFQGSHVPYTFGGGTKLEIKGGGGSGGGGSGGGGSEAKLQESGPVLVKPGASVKMSCKASGYTFTDYYMNWVKQSHGKSLEWIGVINPYNGDTSYNQKFKGKATLTVDKSSSTAYMELNSLTSEDSAVYYCARYYGSWFAYWGQGTLVTVSS
notes: Tested as HEK293T supernatant; also called anti-muCTLA-4 scFv
For B1, the binding result in [10] is given as “binds”.

B2: anti-murine CTLA-4 scFv-Fc (derived from the 9D9 clone, mouse IgG2a Fc) (Fc fusion)
chain: DIVMTQTTLSLPVSLGDQASISCRSSQSIVHSNGNTYLEWYLQKPGQSPKLLIYKVSNRFSGVPDRFSGSGSGTDFTLKISRVEAEDLGVYYCFQGSHVPYTFGGGTKLEIKGGGGSGGGGSGGGGSEAKLQESGPVLVKPGASVKMSCKASGYTFTDYYMNWVKQSHGKSLEWIGVINPYNGDTSYNQKFKGKATLTVDKSSSTAYMELNSLTSEDSAVYYCARYYGSWFAYWGQGTLVTVSSEPRGPTIKPCPPCKCPAPNLLGGPSVFIFPPKIKDVLMISLSPIVTCVVVDVSEDDPDVQISWFVNNVEVHTAQTQTHREDYNSTLRVVSALPIQHQDWMSGKEFKCKVNNKDLPAPIERTISKPKGSVRAPQVYVLPPPEEEMTKKQVTLTCMVTDFMPEDIYVEWTNNGKTELNYKNTEPVLDSDGSYFMYSKLRVEKKNWVERNSYSCSVVHEGLHNHHTTKSFSRTPGK
notes: Tested as HEK293T supernatant; also called anti-muCTLA-4 scFv-Fc
As to B2, the binding result in [10] is listed as “binds”.

(Values after patent publication EP4613276A2 (Actym Therapeutics, Inc., dated 2025).)
